Test results from doi:10.1101/2024.09.27.615443 (bioRxiv, 2024).

Biological target: recombinant TGF-β1/GARP (Homo sapiens, UniProt P01137;Q14392)
Experiment: ELISA

Chain of recombinant TGF-β1/GARP (P01137 30-390, chain 1 of 2): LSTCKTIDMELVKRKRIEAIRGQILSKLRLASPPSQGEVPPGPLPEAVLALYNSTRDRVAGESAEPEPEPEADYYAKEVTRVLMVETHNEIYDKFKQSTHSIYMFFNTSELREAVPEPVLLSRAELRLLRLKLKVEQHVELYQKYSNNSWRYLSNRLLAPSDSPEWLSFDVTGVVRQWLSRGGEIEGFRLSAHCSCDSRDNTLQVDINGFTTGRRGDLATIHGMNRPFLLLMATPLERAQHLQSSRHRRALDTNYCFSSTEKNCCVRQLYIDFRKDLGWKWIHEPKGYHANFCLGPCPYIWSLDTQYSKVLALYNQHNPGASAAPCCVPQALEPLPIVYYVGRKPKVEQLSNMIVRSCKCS
Chain of recombinant TGF-β1/GARP (Q14392 20-662, chain 2 of 2): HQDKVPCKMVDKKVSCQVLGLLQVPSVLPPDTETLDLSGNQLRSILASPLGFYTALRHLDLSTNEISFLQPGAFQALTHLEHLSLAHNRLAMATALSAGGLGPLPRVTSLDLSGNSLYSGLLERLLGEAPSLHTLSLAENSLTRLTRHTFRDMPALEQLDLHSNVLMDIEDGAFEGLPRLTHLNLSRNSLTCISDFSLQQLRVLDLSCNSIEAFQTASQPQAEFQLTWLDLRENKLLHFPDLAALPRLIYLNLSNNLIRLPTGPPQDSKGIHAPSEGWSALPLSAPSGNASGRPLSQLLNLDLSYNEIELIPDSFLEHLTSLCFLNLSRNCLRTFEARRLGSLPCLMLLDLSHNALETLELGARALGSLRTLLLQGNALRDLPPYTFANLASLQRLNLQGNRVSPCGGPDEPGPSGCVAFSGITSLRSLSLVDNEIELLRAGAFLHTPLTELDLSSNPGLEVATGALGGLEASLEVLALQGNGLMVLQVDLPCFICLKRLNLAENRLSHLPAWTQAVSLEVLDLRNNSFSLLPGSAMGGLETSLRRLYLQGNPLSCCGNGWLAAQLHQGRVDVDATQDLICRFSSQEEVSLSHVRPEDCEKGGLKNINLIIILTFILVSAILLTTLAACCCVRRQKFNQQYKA

B1: monoclonal antibody clone 28G11 (antibody, V domains shown)
VH: EVKLVESGGGLVQPGGSLSLSCAASGFTFTDYYMSWVRQPPGKALEWLGFIRNKPNGYTTEYSASVKGRFTISRDNSQSILYLQMNVLRAEDSATYYCARYTGGGYFDYWGQGTTLTVSS
VL: DIQMTQTTSSLSASLGDRLTISCRASQDISNYLNWYQQKPDGTVKLLIYYTSRLHSGVPSRFSGSGSGTDYSLTISNLEQADIATYFCQQGDTLPWTFGGGTKLEIK
  binding result: binds
